# Publication PMC2673435
# B1: dT30 (ssDNA)
# DNA: TTTTTTTTTTTTTTTTTTTTTTTTTTTTTT
# Legend:
# Assay in all cases: fluorescence polarization
# [1] = biological target: RPA•2(ERK) (Saccharomyces cerevisiae, UniProt P22336;P26754;P26755 1-621;1-273;1-122, I96L;E97A;R99A;K100A)
# [2] = biological target: RPA•2(DT) (Saccharomyces cerevisiae, UniProt P22336;P26754;P26755 1-621;1-273;1-122, D80A;T82A)
# [3] = biological target: RPA•2(MM2) (Saccharomyces cerevisiae, UniProt P22336;P26754;P26755 1-621;1-273;1-122, D80A;T82A;E103A;D104A;D158A;E162A)
# Chain of RPA•2(MM2) (P22336 whole entry, chain 1 of 3): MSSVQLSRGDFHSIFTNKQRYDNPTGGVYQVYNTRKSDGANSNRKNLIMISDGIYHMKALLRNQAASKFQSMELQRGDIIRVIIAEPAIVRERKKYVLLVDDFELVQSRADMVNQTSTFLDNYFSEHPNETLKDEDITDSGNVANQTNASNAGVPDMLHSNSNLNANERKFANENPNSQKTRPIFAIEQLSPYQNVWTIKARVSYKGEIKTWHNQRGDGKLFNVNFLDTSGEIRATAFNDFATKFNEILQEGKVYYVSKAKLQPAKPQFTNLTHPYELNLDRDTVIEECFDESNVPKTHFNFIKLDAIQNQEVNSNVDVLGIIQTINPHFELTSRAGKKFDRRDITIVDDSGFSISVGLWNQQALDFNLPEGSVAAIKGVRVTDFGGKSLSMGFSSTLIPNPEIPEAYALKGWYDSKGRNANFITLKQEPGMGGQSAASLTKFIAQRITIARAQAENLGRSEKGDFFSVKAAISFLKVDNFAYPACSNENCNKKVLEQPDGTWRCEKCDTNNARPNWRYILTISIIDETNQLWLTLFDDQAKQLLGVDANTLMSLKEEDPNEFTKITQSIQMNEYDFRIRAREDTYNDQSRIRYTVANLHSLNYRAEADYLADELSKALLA
# Chain of RPA•2(MM2) (P26754 whole entry D80A/T82A/E103A/D104A/D158A/E162A, chain 2 of 3): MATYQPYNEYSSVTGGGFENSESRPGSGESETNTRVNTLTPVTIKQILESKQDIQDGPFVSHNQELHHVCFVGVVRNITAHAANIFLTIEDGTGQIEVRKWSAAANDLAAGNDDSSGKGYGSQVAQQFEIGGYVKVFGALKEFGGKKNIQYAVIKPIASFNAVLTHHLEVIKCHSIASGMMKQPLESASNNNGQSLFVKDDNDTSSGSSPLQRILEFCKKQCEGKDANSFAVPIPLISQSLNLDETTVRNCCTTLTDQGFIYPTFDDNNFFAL
# Chain of RPA•2(MM2) (P26755 whole entry, chain 3 of 3): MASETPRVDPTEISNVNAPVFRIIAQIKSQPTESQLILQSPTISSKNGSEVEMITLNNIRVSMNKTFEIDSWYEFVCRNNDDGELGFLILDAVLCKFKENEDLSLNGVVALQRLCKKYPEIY
# [4] = biological target: RPA•2(MM1) (Saccharomyces cerevisiae, UniProt P22336;P26754;P26755 1-621;1-273;1-122, D80A;T82A;I96L;E97A;R99A;K100A;K146A;K147A)
# Chain of RPA•2(MM1) (P22336 whole entry, chain 1 of 3): as the sequence (P22336 whole entry, chain 1 of 3) above
# Chain of RPA•2(MM1) (P26754 whole entry D80A/T82A/I96L/E97A/R99A/K100A/K146A/K147A, chain 2 of 3): as the sequence (P26754 whole entry D80A/T82A/E103A/D104A/D158A/E162A, chain 2 of 3) above, with I96L, E97A, R99A, K100A, A103E, A104D, K146A, K147A, A158D, A162E counted along it
# Chain of RPA•2(MM1) (P26755 whole entry, chain 3 of 3): as the sequence (P26755 whole entry, chain 3 of 3) above
# [5] = biological target: RPA•2(WF) (Saccharomyces cerevisiae, UniProt P22336;P26754;P26755 1-621;1-273;1-122, W101A;F143A)
# Chain of RPA•2(WF) (P22336 whole entry, chain 1 of 3): as the sequence (P22336 whole entry, chain 1 of 3) above
# Chain of RPA•2(WF) (P26754 whole entry W101A/F143A, chain 2 of 3): as the sequence (P26754 whole entry D80A/T82A/E103A/D104A/D158A/E162A, chain 2 of 3) above, with A80D, A82T, W101A, A103E, A104D, F143A, A158D, A162E counted along it
# Chain of RPA•2(WF) (P26755 whole entry, chain 3 of 3): as the sequence (P26755 whole entry, chain 3 of 3) above
# Chain of RPA•2(DT) (P22336 whole entry, chain 1 of 3): as the sequence (P22336 whole entry, chain 1 of 3) above
# Chain of RPA•2(DT) (P26754 whole entry D80A/T82A, chain 2 of 3): as the sequence (P26754 whole entry D80A/T82A/E103A/D104A/D158A/E162A, chain 2 of 3) above, with A103E, A104D, A158D, A162E counted along it
# Chain of RPA•2(DT) (P26755 whole entry, chain 3 of 3): as the sequence (P26755 whole entry, chain 3 of 3) above
# Chain of RPA•2(ERK) (P22336 whole entry, chain 1 of 3): as the sequence (P22336 whole entry, chain 1 of 3) above
# Chain of RPA•2(ERK) (P26754 whole entry I96L/E97A/R99A/K100A, chain 2 of 3): as the sequence (P26754 whole entry D80A/T82A/E103A/D104A/D158A/E162A, chain 2 of 3) above, with A80D, A82T, I96L, E97A, R99A, K100A, A103E, A104D, A158D, A162E counted along it
# Chain of RPA•2(ERK) (P26755 whole entry, chain 3 of 3): as the sequence (P26755 whole entry, chain 3 of 3) above
binder,measurement,setting,value
B1,binding result,[1],binds
same,binding result,[2],binds
same,binding result,[3],binds
same,binding result,[4],binds
same,Ka,[5],3.85e+07 M⁻¹
